B1: Zinc finger protein ZIC 2, residues 250 to 295; numbered along this chain, O95409 (parent)
chain: QCIKQELICKWIDPEQLSNPKKSCNKTFSTMHELVTHVSVEHVGGP

Variants of: B1
Assay: abundance fitness (aPCA) (normalised: wild type 0, dead -1); higher = more abundant; growth selection in yeast, the domain comes from the species named
Conditions: Homo sapiens

Abundance fitness: each site, then its substitutions
E15: S 0.018, K 0.077, G -0.145, D -0.254, A 0.077, V -0.137, L 0.104, T -0.31, I 0.051, W -0.206, M -0.079, F -0.23, R -0.217, P -0.388, Q -0.406, H -0.233, C -0.132, Y -0.14
K22: E -0.285, P -0.095, F -0.332, H -0.006, L -0.089, S -0.102, M -0.126, Y -0.376, C -0.349, R 0.124, A -0.175, Q -0.166, T -0.015, G -0.126, D -0.035, N 0.224, V 0.037, W -0.404
C9: H -1.03, D -0.758, K -0.473, P -0.776, L -0.863, M -0.822, S -0.78, F -0.975, E -0.578, A -0.651, Y -0.829, V -0.841, G -0.714, Q -0.675, W -1.03, I -0.96
D13: Q -0.492, F 0.041, E -0.235, H -0.216, A -0.101, I -0.559, T -0.81, S -0.352, G -0.328, M -0.568, W -0.311, K -0.66, C -0.176, R -0.442, P -0.387, V -0.434
S23: P 0.043, Y 0.079, M 0.246, K 0.309, D -0.287, G 0.111, C 0.029, A 0.316, E 0.002, L 0.282, H 0.156, F 0.14, V 0.107, W -0.01, T 0.193, Q 0.226, R 0.566, I 0.095
K10: L -0.248, E 0.157, P -0.45, Y 0.165, N 0.394, C -0.19, A -0.193, T 0.33, I -0.484, Q 0.205, D 0.018, V -0.4, G -0.138, W -0.277, H 0.236, F -0.506
E6: C -0.632, L -0.974, W -0.767, N -0.264, F -1.04, V -0.778, T -0.748, Q -0.207, R -0.312, K -0.687, H -0.687, A -0.351, S 0.009, G -0.198, I -1.62, Y -0.653
Q16: G -0.251, L 0.068, R -0.432, E -0.397, A -0.144, W -0.069, H -0.077, C -0.014, P -0.285, M -0.25, D -0.074, Y -0.211, T -0.051, S 0.073, K -0.335, N -0.414, F -0.376, I -0.11, V -0.302
S18: D -0.125, Q -0.36, P -0.171, W -0.265, R -0.198, G -0.427, K 0.282, Y -0.317, V -0.485, H -0.389, L -0.145, A -0.348, N 0.286, T 0.118, C -0.06, E -0.394, I -0.409, M -0.348, F -0.15
P14: F -0.788, M -0.334, E -0.216, S -0.28, D -0.65, V -0.369, W -0.484, A -0.316, N -0.123, L -0.434, Q -0.449, H -0.199, Y -0.499, C -0.33, I -0.975, R -0.2, G -0.237, K -0.885, T -0.377
L17: K -0.071, Y -0.564, T 0.035, S -0.111, I 0.067, P 0.101, A 0.084, E 0.306, R -0.304, C -0.245, N 0.124, W -0.623, F 0.143, H -0.662, D 0.176, G -0.363, V 0.11, Q -0.173
P20: L -0.184, E -0.046, D 0.057, Y -0.621, W -0.521, H -0.883, N -0.121, Q -0.264, R -0.416, C -0.832, M -0.076, V -0.111, I -0.498, A -0.235, T -0.554, F -0.356, K -0.233
W11: T -0.413, Q 0.241, L -0.079, C -0.712, P -0.348, E 0.117, H 0.002, N -0.216, A -0.223, S -0.212, F 0.187, M -0.146, G -0.089, R 0.037, V -0.115, K 0.216, D -0.647, Y 0.005
K21: T -0.168, Y -0.095, Q 0.126, P 0.028, W -0.102, R -0.302, I -0.153, S -0.178, C -0.673, L -0.091, M -0.203, V -0.116, A -0.008, N 0.314, H 0.016, G -0.12, F 0.01, E 0.078
I8: Y -0.245, N 0.586, K 0.4, T 0.041, L -0.056, M 0.031, W -0.31, Q 0.171, C -0.177, D 0.384, S 0.02, R 0.241, G 0.036, H 0.033, V 0.086
Q5: S -0.24, M -0.688, R -0.014, Y -0.641, W -0.777, V -0.779, P 0.037, N 0.018, K 0.05, T -0.22, L -0.661
C24: M -0.906, L -0.901, F -1.05, I -1.12, A -0.836, E -0.488, K -0.979, G -0.61, H -0.698
I12: G -0.278, L -0.551, A -0.363, M -0.077, Y -0.175, F -0.179, T 0.041, P 0.018, E 0.111, C 0.013, N -0.417, K -0.085, Q -0.144, D -0.064, H 0.098, S -0.022, R -0.228
N19: C -0.957, M -0.067, H 0.056, Y -0.451, V 0.007, R -0.053, A -0.131, P -0.104, Q 0.132, E -0.006, L -0.17, D -0.092, W -0.74, F -0.166, K -0.012, I 0.164, S -0.079, T 0.118
L7: V 0.08, A 0.097, P 0.194, C -0.196, G -0.425, I -0.103, W -0.223, N 0.22, T 0.001, D -0.375, F -0.322, K 0.309, H 0.306, E 0.17, Y -0.152, M 0.191, R 0.044, Q 0.401

Source: the Human Domainome abundance scans (Beltran et al. 2025)
